Results published in PMC5389416 (Journal of molecular biology, 2017).

What was measured:
Assay in all cases: HDX-MS
[1] = target: Murine dimerization domain p50(248-350)/RelA(190-321) (mouse, UniProt P25799 248-350; Q04207 190-321)
[2] = target: T1, Murine N-terminal hexahistidine-p50(39-350) (mouse, UniProt P25799 39-350)
T1 sequence (looked up): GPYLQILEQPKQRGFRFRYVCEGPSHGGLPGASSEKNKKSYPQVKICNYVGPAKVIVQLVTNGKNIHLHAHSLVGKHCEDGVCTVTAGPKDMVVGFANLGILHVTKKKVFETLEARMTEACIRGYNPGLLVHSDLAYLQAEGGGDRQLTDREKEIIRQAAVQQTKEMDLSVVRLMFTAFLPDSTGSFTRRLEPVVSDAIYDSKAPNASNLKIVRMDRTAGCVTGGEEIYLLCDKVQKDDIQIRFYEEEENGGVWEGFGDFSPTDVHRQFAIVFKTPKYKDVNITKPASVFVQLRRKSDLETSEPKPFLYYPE

[3] = target: Murine RelA(19-321) (mouse, UniProt Q04207 19-321)
Murine RelA(19-321), sequence (Q04207 19-321): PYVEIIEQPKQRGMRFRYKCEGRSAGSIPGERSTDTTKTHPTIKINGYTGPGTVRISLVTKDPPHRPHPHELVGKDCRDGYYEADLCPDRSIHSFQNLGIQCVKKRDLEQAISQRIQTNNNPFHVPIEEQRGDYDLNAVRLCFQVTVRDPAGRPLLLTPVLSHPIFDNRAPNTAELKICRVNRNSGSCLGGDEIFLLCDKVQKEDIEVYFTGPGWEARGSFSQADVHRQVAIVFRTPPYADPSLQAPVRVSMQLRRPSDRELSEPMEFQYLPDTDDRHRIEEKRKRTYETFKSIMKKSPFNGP

Measured: binding result

Murine dimerization domain p50(248-350)/RelA(190-321), sequence (Q04207 190-321, one chain of several): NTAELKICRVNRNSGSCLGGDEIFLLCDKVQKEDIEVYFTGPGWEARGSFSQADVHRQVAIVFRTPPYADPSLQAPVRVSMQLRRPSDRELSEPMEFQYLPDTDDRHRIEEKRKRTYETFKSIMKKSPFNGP

B1: Homo sapiens IκBα(67-287) (domain or fragment, human, UniProt P25963 67-287, looked up)
chain: KQQLTEDGDSFLHLAIIHEEKALTMEVIRQVKGDLAFLNFQNNLQQTPLHLAVITNQPEIAEALLGAGCDPELRDFRGNTPLHLACEQGCLASVGVLTQSCTTPHLHSILKATNYNGHTCLHLASIHGYLGIVELLVSLGADVNAQEPCNGRTALHLAVDLQNPDLVSLLLKCGADVNRVTYQGYSPYQLTWGRPSTRIQQQLGQLTLENLQMLPESEDEE
binds: all assays above
